Source: US20260216379A1 (GEORGIA STATE UNIVERSITY RESEARCH FOUNDATION, published 2026)

How the values were obtained:
collagen type I = collagen type I (mouse, UniProt P11087 152-1207; Q01149 86-1125); test: cell-based or functional assay
PSMA [1] = biological target: T1, PSMA (UniProt Q04609 1-750, limits assumed); test: assay not given; presumably the ELISA on LNCaP cell lysate of FIG. 10
T1 construct: whole, on cells; also called PSMA in LNCaP cell lysate; PSMA on LNCaP cells

CXCR4 = biological target: T2, CXCR4 (UniProt P61073 1-352, limits assumed); test: binding to CXCR4 positive cells (FIGS. 47A-47B)
T2 construct: whole, on cells; also called chemokine receptor type 4; CXCR4 on Mel290 cells
T2 sequence (P61073 whole entry): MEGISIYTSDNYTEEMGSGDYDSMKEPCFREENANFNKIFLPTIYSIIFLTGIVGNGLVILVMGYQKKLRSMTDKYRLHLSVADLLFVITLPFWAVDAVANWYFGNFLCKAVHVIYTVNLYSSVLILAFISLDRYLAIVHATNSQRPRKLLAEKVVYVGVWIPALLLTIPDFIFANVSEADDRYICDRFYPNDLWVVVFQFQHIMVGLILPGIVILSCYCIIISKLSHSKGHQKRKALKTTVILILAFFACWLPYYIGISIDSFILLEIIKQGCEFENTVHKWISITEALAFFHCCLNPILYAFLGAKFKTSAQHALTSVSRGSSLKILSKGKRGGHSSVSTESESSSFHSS

PSMA [2] = biological target: T1, PSMA; test: indirect ELISA on coated LNCaP cell lysate
Text: Briefly, LNCaP cell lysates were coated in a 96-well plate and 5% BSA was used as blocking agent. […] The interaction between ProCA32 variants and PSMA in cell lysates was quantified by ELISA using HRP-conjugated goat-anti-rabbit secondary antibody and one step ELISA kit.

T1 sequence (Q04609 whole entry): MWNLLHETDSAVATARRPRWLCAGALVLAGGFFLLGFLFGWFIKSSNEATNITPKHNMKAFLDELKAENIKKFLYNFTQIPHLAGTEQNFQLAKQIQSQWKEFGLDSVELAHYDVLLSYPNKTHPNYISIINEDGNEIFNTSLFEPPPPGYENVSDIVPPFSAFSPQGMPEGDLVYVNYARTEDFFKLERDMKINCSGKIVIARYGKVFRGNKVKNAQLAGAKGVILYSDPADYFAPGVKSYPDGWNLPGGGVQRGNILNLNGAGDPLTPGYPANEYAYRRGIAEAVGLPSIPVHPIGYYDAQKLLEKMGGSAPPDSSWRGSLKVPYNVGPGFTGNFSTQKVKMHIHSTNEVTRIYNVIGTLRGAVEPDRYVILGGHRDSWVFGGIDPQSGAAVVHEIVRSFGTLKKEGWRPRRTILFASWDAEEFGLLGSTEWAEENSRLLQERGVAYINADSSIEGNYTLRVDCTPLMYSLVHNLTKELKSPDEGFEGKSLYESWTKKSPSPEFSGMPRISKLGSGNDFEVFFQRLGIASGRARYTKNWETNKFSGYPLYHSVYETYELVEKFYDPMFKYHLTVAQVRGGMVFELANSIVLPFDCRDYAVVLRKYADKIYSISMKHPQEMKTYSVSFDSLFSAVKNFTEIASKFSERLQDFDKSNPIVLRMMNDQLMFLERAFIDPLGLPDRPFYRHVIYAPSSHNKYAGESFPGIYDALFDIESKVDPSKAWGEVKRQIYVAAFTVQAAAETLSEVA
collagen type I, sequence (P11087 152-1207, chain 1 of 2): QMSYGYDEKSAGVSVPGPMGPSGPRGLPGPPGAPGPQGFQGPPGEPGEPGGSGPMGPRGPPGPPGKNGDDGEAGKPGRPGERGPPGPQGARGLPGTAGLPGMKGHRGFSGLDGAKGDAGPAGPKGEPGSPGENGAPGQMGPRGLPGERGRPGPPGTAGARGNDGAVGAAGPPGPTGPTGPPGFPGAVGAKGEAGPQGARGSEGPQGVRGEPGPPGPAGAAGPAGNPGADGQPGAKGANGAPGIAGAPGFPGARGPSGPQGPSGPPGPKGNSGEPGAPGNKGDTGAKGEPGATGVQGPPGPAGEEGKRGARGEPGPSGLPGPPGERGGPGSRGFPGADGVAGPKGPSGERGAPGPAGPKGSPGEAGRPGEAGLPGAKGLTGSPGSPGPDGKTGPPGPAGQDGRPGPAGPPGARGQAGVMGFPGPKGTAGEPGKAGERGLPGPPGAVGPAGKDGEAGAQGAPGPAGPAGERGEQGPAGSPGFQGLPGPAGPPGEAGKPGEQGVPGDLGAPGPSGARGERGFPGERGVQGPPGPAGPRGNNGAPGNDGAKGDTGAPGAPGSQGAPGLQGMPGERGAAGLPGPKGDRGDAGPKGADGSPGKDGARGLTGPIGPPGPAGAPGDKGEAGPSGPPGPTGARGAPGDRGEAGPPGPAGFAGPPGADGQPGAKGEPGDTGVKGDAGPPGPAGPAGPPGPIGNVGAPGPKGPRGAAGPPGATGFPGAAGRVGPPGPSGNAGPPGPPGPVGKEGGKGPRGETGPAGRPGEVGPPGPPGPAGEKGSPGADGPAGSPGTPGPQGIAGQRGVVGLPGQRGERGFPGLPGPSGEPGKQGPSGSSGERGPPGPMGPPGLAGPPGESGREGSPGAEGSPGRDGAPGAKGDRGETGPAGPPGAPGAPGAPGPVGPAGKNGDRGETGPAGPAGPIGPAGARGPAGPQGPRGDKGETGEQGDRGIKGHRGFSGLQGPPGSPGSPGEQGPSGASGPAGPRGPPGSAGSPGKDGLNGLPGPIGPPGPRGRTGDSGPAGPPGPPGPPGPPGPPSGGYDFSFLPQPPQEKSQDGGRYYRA
collagen type I, sequence (Q01149 86-1125, chain 2 of 2): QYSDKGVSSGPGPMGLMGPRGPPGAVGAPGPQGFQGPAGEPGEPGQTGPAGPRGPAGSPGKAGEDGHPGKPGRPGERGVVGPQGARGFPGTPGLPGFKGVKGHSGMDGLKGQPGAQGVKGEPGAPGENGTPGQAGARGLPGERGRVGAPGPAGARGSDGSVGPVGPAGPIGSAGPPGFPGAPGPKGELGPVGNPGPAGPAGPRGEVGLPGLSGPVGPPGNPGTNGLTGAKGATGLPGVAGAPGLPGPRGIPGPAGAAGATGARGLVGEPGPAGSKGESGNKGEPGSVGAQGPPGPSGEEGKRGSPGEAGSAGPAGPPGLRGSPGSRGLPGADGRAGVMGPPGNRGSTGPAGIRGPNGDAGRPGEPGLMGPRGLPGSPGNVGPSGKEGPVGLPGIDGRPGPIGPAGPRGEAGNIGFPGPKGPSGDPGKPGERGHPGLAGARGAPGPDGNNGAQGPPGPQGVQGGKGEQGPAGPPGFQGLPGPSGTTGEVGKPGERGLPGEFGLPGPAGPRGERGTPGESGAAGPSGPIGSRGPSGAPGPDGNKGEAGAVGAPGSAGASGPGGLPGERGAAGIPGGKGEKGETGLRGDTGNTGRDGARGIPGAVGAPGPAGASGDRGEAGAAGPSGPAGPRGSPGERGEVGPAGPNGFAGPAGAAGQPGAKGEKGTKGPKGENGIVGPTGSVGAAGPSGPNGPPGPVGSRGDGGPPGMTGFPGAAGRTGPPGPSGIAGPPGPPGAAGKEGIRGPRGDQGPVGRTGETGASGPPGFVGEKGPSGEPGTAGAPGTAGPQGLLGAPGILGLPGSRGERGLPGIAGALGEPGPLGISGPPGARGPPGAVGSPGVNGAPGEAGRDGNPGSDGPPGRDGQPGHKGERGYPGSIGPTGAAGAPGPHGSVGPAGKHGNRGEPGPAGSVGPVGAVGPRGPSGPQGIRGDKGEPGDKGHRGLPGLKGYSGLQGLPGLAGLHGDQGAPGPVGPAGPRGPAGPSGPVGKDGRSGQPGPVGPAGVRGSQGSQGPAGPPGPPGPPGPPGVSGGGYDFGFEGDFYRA

B1: rat ProCA32.collagen (designed binder)
chain: MSMTDLLSAEDIKKAIGAFTAADSFDHKKFFQMVGLKKKSADDVKKVFHILDKDKDGFIEEDELGSILKGFSSDARDLSAKETKTLMAAGDKDGDGKIGVEEWSTLVAESGGGKKWHCYTYFPHHYCVYG
modifications: Used as a contrast agent loaded with Gd3+; the metal ions are not carried by the letters.
Collagen type I
  Gd^3+ injection dosage per gram of tissue in fibrotic liver, against rProCA32: ~2 fold

B2: ProCA32.564.PSMA (designed binder, not shown: small tags and cut ends)
chain: MSMTDLLNAEDIKKAVGAFSATDSFDHKKFFQMVGLKKKSADDVKKVFHMLDKDKDGFIEEDELGFILKGFSPDARDLSAKETKMLMAAGDKDGDGKIGVEEWSTLVAESLSFFSCWLRRSFSLT
notes: Fluorescein-labelled in the anisotropy assays, unlabelled in the ELISA
PSMA [1]
  EC50: 520 nM

B3: ProCA32.V1.CXCR4 (designed binder)
chain: MSMTDLLNAEDIKKAVGAFSATDSFDHKKFFQMVGLKKKSADDVKKVFHMLDKDKDGFIEEDELGFILKGFSPDARDLSAKETKMLMAAGDKDGDGKIGVEEWSTLVAESLGASWHRPDKCCLGYQKRPLP
notes: also called ProCA32.CXCR4
CXCR4
  Kd: 1840 nM

B4: ProCA32 (other)
chain: SMTDLLNAEDIKKAVGAFSATDSFDHKKFFQMVGLKKKSADDVKKVFHMLDKDKDGFIEEDELGFILKGFSPDARDLSAKETKMLMAAGDKDGDGKIGVEEWSTLVAES
notes: Control without a targeting moiety; also called non-targeted ProCA32; ProCA32 itself without targeting moiety
PSMA [2]
  binding result: no binding
